Among the data in paper PMC8160739, “Mycobacterium tuberculosis Binds Human Serum Amyloid A, and the Interaction Modulates the Colonization of Human Macrophages and the Transcriptional Response of the Pathogen” (Cells, 2021) are binding result and Kd values, retold here.

Common to all, as to conditions: both partners purified
The target of test [1] is T1, recombinant Mycobacterium tuberculosis rEspB (Mycobacterium tuberculosis H37Rv, UniProt P9WJD9 1-460).
T1 construct: also called pHis-espB product
Nature of the test: far-Western, overlay or dot blot; recombinant Mtb proteins separated by reducing SDS-PAGE (12% gel), transferred to nitrocellulose, incubated 2 h at room temperature with biotin-labeled SAA1 at 10 µg/mL in PBS/0.05% Tween 20/0.1% BSA; streptavidin-peroxidase detection.

In test [2] the target is T2, recombinant Mycobacterium tuberculosis rTB18.6 (Mycobacterium tuberculosis H37Rv, UniProt P9WFN1 1-176).
T2 construct: also called pHis-tb18.6 product
T2 sequence: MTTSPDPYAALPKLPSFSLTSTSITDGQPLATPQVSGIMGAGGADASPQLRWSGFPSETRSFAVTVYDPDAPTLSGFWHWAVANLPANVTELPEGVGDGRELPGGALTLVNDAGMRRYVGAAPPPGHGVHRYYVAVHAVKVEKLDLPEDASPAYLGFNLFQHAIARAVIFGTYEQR
Described as above.

Test [3] deals with T3, recombinant Mycobacterium tuberculosis rThiC (Mycobacterium tuberculosis H37Rv, UniProt P9WG79 1-547).
T3 construct: also called pHis-thiC product
Described as above.

The target of test [4] is T4, recombinant Mycobacterium tuberculosis rAtpA (Mycobacterium tuberculosis H37Rv, UniProt P9WPU7 1-549).
T4 construct: also called pHis-atpA product
The test is described as above.

For test [5], the target named is T5, recombinant Mycobacterium tuberculosis rABC (Mycobacterium tuberculosis H37Rv, UniProt P9WQK3 1-558).
T5 construct: also called rABC transporter; pHis-abc product
T5 sequence: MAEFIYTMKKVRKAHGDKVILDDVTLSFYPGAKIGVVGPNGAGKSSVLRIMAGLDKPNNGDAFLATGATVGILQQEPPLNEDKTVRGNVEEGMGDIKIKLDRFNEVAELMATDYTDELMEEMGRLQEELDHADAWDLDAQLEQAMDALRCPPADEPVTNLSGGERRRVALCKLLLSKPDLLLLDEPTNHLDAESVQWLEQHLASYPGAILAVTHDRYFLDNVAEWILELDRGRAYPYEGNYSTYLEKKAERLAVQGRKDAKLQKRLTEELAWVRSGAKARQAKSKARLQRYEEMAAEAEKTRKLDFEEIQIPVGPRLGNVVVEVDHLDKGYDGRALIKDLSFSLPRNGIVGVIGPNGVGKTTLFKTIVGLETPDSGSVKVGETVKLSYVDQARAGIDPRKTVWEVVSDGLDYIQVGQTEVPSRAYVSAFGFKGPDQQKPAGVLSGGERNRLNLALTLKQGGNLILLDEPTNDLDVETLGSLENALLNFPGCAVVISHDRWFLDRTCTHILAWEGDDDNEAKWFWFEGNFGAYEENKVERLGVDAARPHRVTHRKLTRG
Nature of the test: SPR; Biacore X, CM5 chip; human SAA1 amine-coupled (7850 RU), BSA chip as control and blank; native recombinant Mtb proteins as analytes; 22-25 °C; HBS-EP pH 7.4 (0.01 M HEPES, 0.15 M NaCl, 3 mM EDTA, 0.005% P20); flow 5 or 20 µL/min; global fit, Langmuir 1:1 with drifting baseline.

In test [6] the target is T1, recombinant Mycobacterium tuberculosis …. The description is as above.
Test [7] concerns the target T2, recombinant Mycobacterium tuberculosis …. The description is as above.
For test [8], the target named is T3, recombinant Mycobacterium tuberculosis …. Described as above.
For test [9], the target named is T4, recombinant Mycobacterium tuberculosis …. Described as above.

What is called Kd is the concentration at which binding is half-saturated.

T4 sequence (P9WPU7 whole entry): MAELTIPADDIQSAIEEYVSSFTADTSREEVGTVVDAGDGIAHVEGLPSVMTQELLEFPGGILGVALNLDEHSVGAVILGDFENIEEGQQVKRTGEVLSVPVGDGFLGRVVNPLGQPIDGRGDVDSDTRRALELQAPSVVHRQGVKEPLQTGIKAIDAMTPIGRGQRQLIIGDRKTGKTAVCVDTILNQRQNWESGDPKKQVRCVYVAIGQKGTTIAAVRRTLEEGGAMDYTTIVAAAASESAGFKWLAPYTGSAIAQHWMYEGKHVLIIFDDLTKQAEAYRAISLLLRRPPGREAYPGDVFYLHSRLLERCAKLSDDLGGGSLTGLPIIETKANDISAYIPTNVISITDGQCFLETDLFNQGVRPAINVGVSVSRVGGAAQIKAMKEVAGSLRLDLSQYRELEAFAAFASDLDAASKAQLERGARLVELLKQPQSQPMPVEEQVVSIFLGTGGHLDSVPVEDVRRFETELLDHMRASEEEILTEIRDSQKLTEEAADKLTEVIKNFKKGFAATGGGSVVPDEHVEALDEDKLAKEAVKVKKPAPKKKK
T1 sequence (P9WJD9 whole entry): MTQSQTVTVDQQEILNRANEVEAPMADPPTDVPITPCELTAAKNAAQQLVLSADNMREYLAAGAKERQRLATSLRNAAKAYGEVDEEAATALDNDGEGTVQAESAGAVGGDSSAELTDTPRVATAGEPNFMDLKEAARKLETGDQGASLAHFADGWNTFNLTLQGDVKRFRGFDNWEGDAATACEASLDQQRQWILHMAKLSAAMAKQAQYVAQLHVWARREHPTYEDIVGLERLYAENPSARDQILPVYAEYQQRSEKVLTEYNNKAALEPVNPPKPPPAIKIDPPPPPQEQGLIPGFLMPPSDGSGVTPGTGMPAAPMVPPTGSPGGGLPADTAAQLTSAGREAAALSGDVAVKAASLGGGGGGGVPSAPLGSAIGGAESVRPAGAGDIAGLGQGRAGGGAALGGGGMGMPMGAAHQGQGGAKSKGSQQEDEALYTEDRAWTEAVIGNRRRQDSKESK
T3 sequence (P9WG79 whole entry): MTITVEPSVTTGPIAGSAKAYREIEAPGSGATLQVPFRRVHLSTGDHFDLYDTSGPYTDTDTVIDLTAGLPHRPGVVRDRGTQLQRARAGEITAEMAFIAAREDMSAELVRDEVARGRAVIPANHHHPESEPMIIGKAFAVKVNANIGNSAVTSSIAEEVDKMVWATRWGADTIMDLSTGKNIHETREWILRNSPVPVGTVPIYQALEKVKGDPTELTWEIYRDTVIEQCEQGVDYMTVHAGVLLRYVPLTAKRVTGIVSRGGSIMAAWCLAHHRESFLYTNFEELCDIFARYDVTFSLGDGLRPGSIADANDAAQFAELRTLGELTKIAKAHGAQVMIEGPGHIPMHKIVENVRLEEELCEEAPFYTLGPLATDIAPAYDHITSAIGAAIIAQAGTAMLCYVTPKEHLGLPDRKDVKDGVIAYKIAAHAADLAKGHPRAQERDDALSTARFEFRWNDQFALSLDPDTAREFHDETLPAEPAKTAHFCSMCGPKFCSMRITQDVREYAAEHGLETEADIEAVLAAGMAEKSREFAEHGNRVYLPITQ

B1: biotin-labeled recombinant human SAA1 (natural protein, UniProt P0DJI8 19-122, looked up)
chain: RSFFSFLGEAFDGARDMWRAYSDMREANYIGSDKYFHARGNYDAAKRGPGGAWAAEVITDARENIQRFFGHGAEDSLADQAANEWGRSGKDPNHFRPAGLPEKY
modifications: biotin (Sulfo-NHS-biotin labeling; sites not stated)
notes: serum amyloid A1 (SAA1), human, recombinant, bought from Sigma Aldrich; Same bought protein as m1, biotinylated; detected with streptavidin-HRP; also called biotinylated SAA1; biotin-labeled human SAA1; source: bought: Sigma Aldrich (recombinant), labeled with EZ-Link Micro Sulfo-NHS-Biotinylation Kit
On to B1, for which the binding result in test [1], in [2], in [3] and in test [4] was “binds” throughout.

B2: recombinant human serum amyloid A (SAA1) (natural protein, UniProt P0DJI8 19-122, looked up)
chain: RSFFSFLGEAFDGARDMWRAYSDMREANYIGSDKYFHARGNYDAAKRGPGGAWAAEVITDARENIQRFFGHGAEDSLADQAANEWGRSGKDPNHFRPAGLPEKY
notes: serum amyloid A1 (SAA1), human, recombinant, bought from Sigma Aldrich; also called human SAA1; human acute phase protein; source: bought: Sigma Aldrich (recombinant)
Take B2: the dissociation constant Kd in test [5] stood at 11.3 µM; in [6] it was 5.06 µM; in [7], 8.5 µM; in test [8], 7.53 µM; in test [9], 0.194 µM.
